Read-outs that look alike come from different tables or passages of the source.

The % inhibition is the change of the read-out against control, counted positive when it falls. A word on the IC50: it is the point on the concentration scale where inhibition reaches its midpoint. Lower therefore signals inhibition by little substance. A word on the EC50: it is the midpoint of the concentration-response curve. A low value points to greater potency. Broadly, the Kd is the concentration at which binding is half-saturated. The low end stands for higher affinity, the high end for lower affinity. As a reminder, the koff is the first-order rate constant of dissociation. By kon is commonly meant the second-order rate constant of association.

Assay [1] concerns the target Env of AE.CM235 on infected CD4+ T cells (HIV-1).
Assay [2] addresses α4β7 on RPMI 8866 cells (UniProt P13612).
Assay [3] has the same target. Put plainly: cells preincubated with ACT-1, adhesion to MADCAM-1 (competitor; 2 ug/ml).
Assay [4] has as its target AE.A244 gp120 (HIV-1).
In the next assay the target is A.Q23 V1V2 tags (HIV-1). Description: ELISA.
The target in assay [5] is AE.A244 V1V2 Tags (HIV-1). Put plainly: ELISA. For orientation: ELISA stands for enzyme-linked immunosorbent assay.
Assay [6] deals with AE.A244 gD+ gp120 (HIV-1). Put plainly: ELISA.
Assay [7] concerns the target AE.A244 gp120 (HIV-1). Put plainly: ELISA.
The target of assay [8] is AE.A244 gp120 delta 11 (HIV-1). Description: ELISA.
The target in another assay is B.6240 gp140C (HIV-1). Put plainly: ELISA.
Assay [9] addresses AE.A244 V1V2 Tags (HIV-1). Description: ELISA. This is another data set of the same source.
The target of assay [10] is AE.427299 gp120D11 (HIV-1). Put plainly: ELISA.
Assay [11] concerns the target AE.427299 gp120D11/Q169K (HIV-1). Put plainly: ELISA.
Assay [12] concerns the target AE.A244 gp120 D11/K169V/V172E/H173Y (HIV-1). Description: ELISA.
The target of assay [13] is AE.A244 gp120 delta 11 (HIV-1). Put plainly: ELISA. This is another data set of the same source.
In assay [14] the target is AE.A244 gp120D11/K169V (HIV-1). Put plainly: ELISA.
The target in assay [15] is AE.A244 V1V2 Tags (HIV-1).
For assay [16], the target named is Env of 1051.C22.LucR.T2A.ecto virus (HIV-1). Description: cell-based or functional assay.
Assay [17] deals with Env of 427299.c12 virus (HIV-1). Put plainly: cell-based or functional assay.
For assay [18], the target named is Env of 427299.c12.H81L virus (HIV-1). Description: cell-based or functional assay.
Assay [19] concerns the target Env of 427299.c12.KL.Q169K/I181L virus (HIV-1). Description: cell-based or functional assay.
Assay [20] concerns the target Env of 427299.c12.Q169K virus (HIV-1). Description: cell-based or functional assay.
Assay [21] concerns the target Env of 644039.c01b-CM235LucR.T2A.11 virus (HIV-1). Description: cell-based or functional assay.
The target in assay [22] is Env of 703357.2.I181L virus (HIV-1). Description: cell-based or functional assay.
Assay [23] addresses Env of 703357.2.Q169K virus (HIV-1). Put plainly: cell-based or functional assay.
In assay [24] the target is Env of 703357.2.Q169KI181L virus (HIV-1). Description: cell-based or functional assay.
Assay [25] deals with Env of 703357.2.Q169KR170Q virus (HIV-1). Put plainly: cell-based or functional assay.
The target of assay [26] is Env of 703357.2.Q169KR170QI181L virus (HIV-1). Description: cell-based or functional assay.
In assay [27] the target is Env of 703357.c02 virus (HIV-1). Description: cell-based or functional assay.
Assay [28] deals with Env of 92TH023 K169Q virus (HIV-1). Description: cell-based or functional assay.
For assay [29], the target named is Env of AE.92TH023 virus (HIV-1). Put plainly: cell-based or functional assay.
For assay [30], the target named is Env of AE.CM244 virus (HIV-1). Description: cell-based or functional assay.
In assay [31] the target is Env of CM235-2.LucR.T2A.ecto virus (HIV-1). Put plainly: cell-based or functional assay.
Assay [32] has as its target Env of CM244.c01.ETH2220LucR.T2A.4 virus (HIV-1). Description: cell-based or functional assay.
Assay [33] deals with Env of CM244NW.4.K169Q virus (HIV-1). Put plainly: cell-based or functional assay.
Assay [34] addresses Env of CM244NW.6.I181L virus (HIV-1). Description: cell-based or functional assay.
In assay [35] the target is Env of Ce1086_B2.LucR.T2A.ecto virus (HIV-1). Put plainly: cell-based or functional assay.
The target in assay [36] is Env of Ce1176_A3.LucR.T2A.ecto virus (HIV-1). Put plainly: cell-based or functional assay.
Assay [37] addresses Env of Du151.2.LucR.T2A.ecto virus (HIV-1). Put plainly: cell-based or functional assay.
Assay [38] concerns the target Env of Du422.1.LucR.T2A.ecto virus (HIV-1). Put plainly: cell-based or functional assay.
Assay [39] has as its target Env of RHPA.LucR.T2A.ecto virus (HIV-1). Put plainly: cell-based or functional assay.
The target in assay [40] is Env of SC22.3C2.LucR.T2A.ecto virus (HIV-1). Description: cell-based or functional assay.
The target in assay [41] is Env of TH023.6.I181L virus (HIV-1). Put plainly: cell-based or functional assay.
The target of assay [42] is Env of WITO.LucR.T2A.ecto virus (HIV-1). Put plainly: cell-based or functional assay.
Assay [43] deals with 92TH023 V2 cyclic peptide (HIV-1). Description: RPMI 8866 cell adhesion to coated peptide, mAb 10 ug/ml.
Assay [44] concerns the target AE.A244 gp120 N160K (HIV-1). Put plainly: ELISA.
Another assay deals with C.1086 gp120 Δ7 (HIV-1). Put plainly: ELISA.
Assay [45] addresses C.CAP206 gp140, natively deglycosylated (HIV-1). Put plainly: ELISA.
Assay [46] deals with J08 C.97ZA012V1V2N156QN160Q (HIV-1). Description: ELISA.
A further assay has as its target B.JRFL gp140CF (HIV-1) (UniProt P20871). Description: ELISA.
Assay [47] concerns the target Env of AE.CM235 on infected CD4+ T cells (HIV-1). Put plainly: flow cytometry on IMC CM235-infected CD4+ T cells, 10 ug/ml, negative control. (A flow cytometer gives signals particle by particle.)

Sequence of CH59 (antibody) (VH): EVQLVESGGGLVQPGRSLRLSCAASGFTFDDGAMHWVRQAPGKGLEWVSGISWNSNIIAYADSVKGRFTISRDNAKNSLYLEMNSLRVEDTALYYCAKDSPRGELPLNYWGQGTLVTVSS
Sequence of CH59 (antibody) (VL): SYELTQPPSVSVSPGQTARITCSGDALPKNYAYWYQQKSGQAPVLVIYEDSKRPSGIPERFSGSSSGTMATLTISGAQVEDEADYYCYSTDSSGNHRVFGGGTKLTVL
Sequence of CH01 (antibody) (heavy, form in doubt): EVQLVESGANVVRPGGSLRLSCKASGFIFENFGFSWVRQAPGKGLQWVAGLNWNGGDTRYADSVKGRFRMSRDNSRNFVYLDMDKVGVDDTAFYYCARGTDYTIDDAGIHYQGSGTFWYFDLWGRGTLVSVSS
Sequence of CH01 (antibody) (light, form in doubt): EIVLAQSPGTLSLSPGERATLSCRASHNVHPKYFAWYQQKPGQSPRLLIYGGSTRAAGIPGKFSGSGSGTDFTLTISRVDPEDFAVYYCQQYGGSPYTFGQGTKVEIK

As for A32 (antibody), in [1], the % positive cells is 94% and the FITC MFI stood at 19900.

For ACT-1 (antibody), the % inhibition with α4β7 on RPMI 8866 cells [2] amounted to 53.3%; in the assay with α4β7 on RPMI 8866 cells [3], 71.3%.

CH01 (antibody) gave an IC50 with AE.A244 gp120 (HIV-1) [4] of 10 to 100 nM. Further, the concentration giving a half-maximal response (EC50) is more than 66.7 nM with A.Q23 V1V2 tags (HIV-1); 8.9 nM in assay [5]; 0.9 nM in assay [6]; 1.3 nM with AE.A244 gp120 (HIV-1) [7]; 0.47 nM in [8]; more than 667 nM with B.6240 gp140C (HIV-1). For the same substance, the concentration giving a half-maximal response (EC50) in assay [9] was 1.7 nM; in assay [10], more than 10 mg/L; in assay [11], more than 10 mg/L; in assay [12], 0.93 mg/L; in [13] it was 0.35 mg/L; in [14] it was 0.13 mg/L. The Kd in assay [15] was 334 nM. Further, in assay [15], the koff was 0.0076 s⁻¹. The kon in assay [15] is 23000 M⁻¹ s⁻¹. Also, in assay [16], the ID50 assayed in A3R5.7 cells, 1051.C22.LucR.T2A.ecto was more than 25 mg/L. Further, in assay [17], the ID50 assayed in TZM-bl cells, 427299.c12 is 0.09 mg/L. Also, the ID50 assayed in TZM-bl cells, 427299.c12.H81L in assay [18] is 0.16 mg/L. In assay [19], this substance had an ID50 assayed in TZM-bl cells, 427299.c12.KL.Q169K/I181L of 0.15 mg/L. Also, in assay [20], the ID50 assayed in TZM-bl cells, 427299.c12.Q169K worked out at 0.18 mg/L. This substance had an ID50 assayed in A3R5.7 cells, 644039.c01b-CM235LucR.T2A.11 in assay [21] of more than 25 mg/L. The substance further registered an ID50 assayed in TZM-bl cells, 703357.2.I181L in assay [22] of more than 25 mg/L. The substance further registered an ID50 assayed in TZM-bl cells, 703357.2.Q169K in assay [23] of more than 25 mg/L. Moreover, the ID50 assayed in TZM-bl cells, 703357.2.Q169KI181L in [24] is more than 25 mg/L. In assay [25], this substance showed an ID50 assayed in TZM-bl cells, 703357.2.Q169KR170Q of more than 25 mg/L. In addition, the ID50 assayed in TZM-bl cells, 703357.2.Q169KR170QI181L in [26] was more than 25 mg/L. The substance also had an ID50 assayed in TZM-bl cells, 703357.c02 in assay [27] of more than 25 mg/L. The substance also showed an ID50 assayed in TZM-bl cells, TH023.6.K169Q in assay [28] of 22.8 mg/L. The substance also came in with an ID50 assayed in TZM-bl cells, TH023.6 in assay [29] of more than 25 mg/L. This substance also registered an ID50 assayed in TZM-bl cells, CM244.ec1 in assay [30] of 0.02 mg/L. For the same substance, the ID50 assayed in A3R5.7 cells, CM235-2.LucR.T2A.ecto in assay [31] came out at 0.04 mg/L. For the same substance, the ID50 assayed in A3R5.7 cells, CM244.c01.ETH2220LucR.T2A.4 in [32] stood at 0.33 mg/L. The substance further registered an ID50 assayed in TZM-bl cells, CM244NW.4.K169Q in [33] of 0.05 mg/L. For the same substance, in assay [34], the ID50 assayed in TZM-bl cells, CM244NW.6.I181L was found to be 0.03 mg/L. The same substance displayed an ID50 assayed in A3R5.7 cells, Ce1086 B2.LucR.T2A.ecto in assay [35] of more than 25 mg/L. In [36], the ID50 assayed in A3R5.7 cells, Ce1176 A3.LucR.T2A.ecto turned out to be 0.04 mg/L. The ID50 assayed in A3R5.7 cells, Du151.2.LucR.T2A.ecto in assay [37] was determined as 1.51 mg/L. In assay [38], this substance gave an ID50 assayed in A3R5.7 cells, Du422.1.LucR.T2A.ecto of more than 25 mg/L. In assay [39], this substance registered an ID50 assayed in A3R5.7 cells, RHPA.LucR.T2A.ecto of 8.2 mg/L. In assay [40], this substance came in with an ID50 assayed in A3R5.7 cells, SC22.3C2.LucR.T2A.ecto of more than 25 mg/L. Also, in assay [41], the ID50 assayed in TZM-bl cells, TH023.6.I181L is more than 25 mg/L. Besides, the ID50 assayed in A3R5.7 cells, WITO.LucR.T2A.ecto in assay [42] was 0.05 mg/L. In [43], the % inhibition is -11.2%.

Consider CH59 (antibody), for which the EC50 in assay [44] is 0.04 nM; with C.1086 gp120 Δ7 (HIV-1), 0.07 nM; in assay [45], more than 667 nM; in [46], more than 667 nM.

For the substance PG9 (antibody), the concentration giving a half-maximal response (EC50) amounted to 0.3 nM with B.6240 gp140C (HIV-1), 273 nM with B.JRFL gp140CF (HIV-1) and 279 nM in assay [45].

The substance PG16 (antibody) yielded an EC50 in the assay with B.6240 gp140C (HIV-1) of 10.3 nM.

Regarding Synagis (antibody), the FITC MFI in assay [1] came out at 3600. Besides, in assay [47], the % of p24+ cells stained (background) is 11%.
